Experimental data reported in patent US20240011031, “COMPOSITIONS COMPRISING A NUCLEASE AND USES THEREOF” (Arbor Biotechnologies, Inc., published 2024).

Key:
[1] = target: T1, Effector SEQ ID NO: 2 (CLUST.200916 nuclease); assay: GFP fluorescence depletion in IVTT, 37 C, 12 h; PAM 5'-CCCG-3'
T1 chain: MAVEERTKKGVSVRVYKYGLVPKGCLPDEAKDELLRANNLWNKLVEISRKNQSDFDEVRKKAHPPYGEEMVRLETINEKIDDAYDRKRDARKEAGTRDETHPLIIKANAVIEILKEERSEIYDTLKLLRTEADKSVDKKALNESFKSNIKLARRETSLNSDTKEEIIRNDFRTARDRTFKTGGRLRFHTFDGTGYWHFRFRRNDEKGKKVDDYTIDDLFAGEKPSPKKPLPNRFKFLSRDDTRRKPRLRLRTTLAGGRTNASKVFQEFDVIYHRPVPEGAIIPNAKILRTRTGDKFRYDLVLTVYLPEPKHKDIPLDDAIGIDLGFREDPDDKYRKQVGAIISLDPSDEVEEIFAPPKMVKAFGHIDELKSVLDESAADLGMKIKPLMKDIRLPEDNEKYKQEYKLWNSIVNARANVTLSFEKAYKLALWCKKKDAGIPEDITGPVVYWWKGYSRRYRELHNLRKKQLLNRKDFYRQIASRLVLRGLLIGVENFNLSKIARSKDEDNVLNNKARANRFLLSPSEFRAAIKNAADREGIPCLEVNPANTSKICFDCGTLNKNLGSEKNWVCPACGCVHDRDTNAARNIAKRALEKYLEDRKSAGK
Description: (§1) In this assay, an active CRISPR system designed to target GFP binds and cleaves the double-stranded DNA region encoding GFP, resulting in depletion of GFP fluorescence. The FDA assay involves in vitro transcription and translation, allowing production of an RNP from a DNA template encoding a CLUST.200916 effector and a DNA template containing a pre-crRNA sequence under a T7 promoter with direct repeat (DR)-spacer-direct repeat (DR); the spacer targeted GFP. In the same one-pot reaction, GFP and RFP were also produced as both the target and the fluorescence reporter (FIG. SA). The target GFP plasmid sequence is set forth in SEQ ID NO: 205, and the fluorescence reporter RFP plasmid sequence is set forth in SEQ ID NO: 206. GFP and RFP fluorescence values were measured every 20 min at 37° C. for 12 hr, using a TECAN Infinite F Plex plate reader. Since RFP was not targeted, its fluorescence was not affected and was therefore used as an internal signal control.
(§2) GFP signal was normalized to RFP signal, then the average fluorescence of three technical replicates was taken at each time point. GFP fluorescence depletion was then calculated by dividing the GFP signal of an effector incubated with a non-GFP targeting RNA guide (which instead targets a kanamycin resistance gene) by the GFP signal of an effector incubated with a GFP targeting RNA guide. […]

[2] = target: T1, Effector SEQ ID NO: 2 (CLUST.200916 …); assay: GFP fluorescence depletion in IVTT, 37 C, 12 h; PAM 5'-ACCG-3'
Description: as §1, §2

[3] = target: T1, Effector SEQ ID NO: 2 (CLUST.200916 …); assay: GFP fluorescence depletion in IVTT, 37 C, 12 h; PAM 5'-TCCA-3'
Description: as §1, §2

[4] = target: T1, Effector SEQ ID NO: 2 (CLUST.200916 …); assay: GFP fluorescence depletion in IVTT, 37 C, 12 h; PAM 5'-CCCA-3'
Description: as §1, §2

[5] = target: T1, Effector SEQ ID NO: 2 (CLUST.200916 …); assay: GFP fluorescence depletion in IVTT, 37 C, 12 h; PAM 5'-TCCT-3'
Description: as §1, §2

B1: pre-crRNA GFP Target 3 ; GFP Target 3 (ssRNA ; dsDNA)
RNA: GGUAUAACGACCCUGCGAAGUGGGGUGUAACUUCGACUAGUGCAGAUGUAUUUCGCUUUAAUGGUACGUAUAACGACCCUGCGAAGUGGGGUGUAACUUCGACCUAACCCCUCUCUAAACGGAGGGGUUU
DNA 1: TAGTGCAGATGTATTTCGCTTTAATGGTAC
DNA 2: GTACCATTAAAGCGAAATACATCTGCACTA
Work on B1 yielded an activity [1] greater than 1 depletion ratio.

B2: pre-crRNA GFP Target 2 ; GFP Target 2 (ssRNA ; dsDNA)
RNA: GGUAUAACGACCCUGCGAAGUGGGGUGUAACUUCGACAAAAACUGGUUACCAAAUGCAGCCAAAUGAGUAUAACGACCCUGCGAAGUGGGGUGUAACUUCGACCUAACCCCUCUCUAAACGGAGGGGUUU
DNA 1: AAAAACTGGTTACCAAATGCAGCCAAATGA
DNA 2: TCATTTGGCTGCATTTGGTAACCAGTTTTT
B2 showed an activity [2] greater than 1 depletion ratio.

B3: pre-crRNA GFP Target 5 ; GFP Target 5 (ssRNA ; dsDNA)
RNA: GGUAUAACGACCCUGCGAAGUGGGGUGUAACUUCGACUGACGGCAUUGACGGAAGGUGCAAAACUGUGUAUAACGACCCUGCGAAGUGGGGUGUAACUUCGACCUAACCCCUCUCUAAACGGAGGGGUUU
DNA 1: TGACGGCATTGACGGAAGGTGCAAAACTGT
DNA 2: ACAGTTTTGCACCTTCCGTCAATGCCGTCA
Binder B3 has an activity [3] greater than 1 depletion ratio.

B4: pre-crRNA GFP Target 1 ; GFP Target 1 (ssRNA ; dsDNA)
RNA: GGUAUAACGACCCUGCGAAGUGGGGUGUAACUUCGACAGAGCGUACCAUCAGCUUCGAAGGCGACGGGUAUAACGACCCUGCGAAGUGGGGUGUAACUUCGACCUAACCCCUCUCUAAACGGAGGGGUUU
DNA 1: AGAGCGTACCATCAGCTTCGAAGGCGACGG
DNA 2: CCGTCGCCTTCGAAGCTGATGGTACGCTCT
B4 was tested, and the activity [4] was greater than 1 depletion ratio.

B5: pre-crRNA GFP Target 4 ; GFP Target 4 (ssRNA ; dsDNA)
RNA: GGUAUAACGACCCUGCGAAGUGGGGUGUAACUUCGACUGAUGUGGCUCGGGUACUUGGCGAAACACUGUAUAACGACCCUGCGAAGUGGGGUGUAACUUCGACCUAACCCCUCUCUAAACGGAGGGGUUU
DNA 1: TGATGTGGCTCGGGTACTTGGCGAAACACT
DNA 2: AGTGTTTCGCCAAGTACCCGAGCCACATCA
B5 showed an activity [5] greater than 1 depletion ratio.
